The term Kd denotes the free concentration of one partner at which half of the binding sites on the other are occupied at equilibrium, for simple one-to-one binding.

These results are taken from the Immune Epitope Database (IEDB).

The target of one assay is HLA-B*08:01. Description: IEDB peptide-MHC binding, purified MHC/competitive/radioactivity; filed as Kd, often an IC50 or EC50 that approximates it; ≥ and ≤ were set here for values at or beyond the usual limits of such assays.
Another assay has as its target HLA-B*07:02. The description is as above.
Assay [1] has as its target HLA-B*51:01. The description is as above.
Another assay addresses HLA-B*53:01. The assay is described as above.
The target in another assay is HLA-B*35:01. The description is as above.
The next assay concerns the target HLA-B*54:01. The assay is described as above.
The target in assay [2] is HLA-A*26:01. In words: IEDB peptide-MHC binding, purified MHC/competitive/fluorescence; filed as Kd, often an IC50 or EC50 that approximates it; ≥ and ≤ were set here for values at or beyond the usual limits of such assays.
For another assay, the target named is HLA-A*68:02. In words: IEDB peptide-MHC binding, purified MHC/competitive/radioactivity; filed as Kd, often an IC50 or EC50 that approximates it; ≥ and ≤ were set here for values at or beyond the usual limits of such assays.
Assay [3] deals with HLA-A*26:01. The description is as above. Particulars: source organism: Dengue virus 4 Philippines/H241/1956.
In a further assay the target is HLA-A*01:01. The description is as above. The following applies: source organism: Dengue virus 4 Philippines/H241/1956.
In a further assay the target is HLA-A*02:02. The description is as above. Particulars: source organism: Homo sapiens.
For assay [4], the target named is HLA-B*51:01. Description: IEDB peptide-MHC binding, purified MHC/competitive/fluorescence; filed as Kd, often an IC50 or EC50 that approximates it; ≥ and ≤ were set here for values at or beyond the usual limits of such assays. The following applies: source organism: Yersinia pestis Nepal516.
The target in the next assay is HLA-A*03:01. Description: IEDB peptide-MHC binding, purified MHC/competitive/radioactivity; filed as Kd, often an IC50 or EC50 that approximates it; ≥ and ≤ were set here for values at or beyond the usual limits of such assays. Particulars: source organism: Dengue virus 4 Philippines/H241/1956.
For the next assay, the target named is HLA-A*33:01. The assay is described as above. The following applies: source organism: Dengue virus 4 Philippines/H241/1956.
The next assay concerns the target HLA-A*31:01. The assay is described as above. The following applies: source organism: Dengue virus 4 Philippines/H241/1956.
Where [5] appears, read: source organism: Dengue virus 2 Jamaica/1409/1983.
[6] abbreviates: source organism: Vaccinia virus WR.
[7] abbreviates: source organism: Mammarenavirus choriomeningitidis.
The mark [8] stands for this setting: source organism: Escherichia coli.
Setting [9] is: source organism: Dengue virus 4 Philippines/H241/1956.
Where [10] appears, read: source organism: Dengue virus 1 Brazil/97-11/1997.
Setting [11] is: source organism: Lymphocytic choriomeningitis virus (strain Armstrong).
[12] abbreviates: source organism: Mammarenavirus brazilense.
The mark [13] stands for this setting: source organism: Mammarenavirus lassaense.

AAGRKSLTL: the Kd in the assay with HLA-B*08:01 (setting [5]) came to 0.21 µM.

On to CINVRRCAL, for which the equilibrium dissociation constant (Kd) with HLA-B*08:01 (setting [6]) was 0.00694 µM.

Take CPFLFLMLL: the Kd with HLA-B*07:02 (setting [7]) is at least 77.4 µM; with HLA-B*51:01 [1] (setting [7]) it was at least 45.9 µM; with HLA-B*53:01 (setting [7]), 2.1 µM; with HLA-B*35:01 (setting [7]) it was 1.42 µM; with HLA-B*54:01 (setting [7]) it was 0.142 µM.

As to DPEKFNARMA, the dissociation constant Kd was at least 53.7 µM with HLA-B*07:02 (setting [6]); at least 40.5 µM with HLA-B*51:01 [1] (setting [6]); at least 44.7 µM with HLA-B*53:01 (setting [6]); at least 69.9 µM with HLA-B*35:01 (setting [6]); 1.01 µM with HLA-B*54:01 (setting [6]).

For DPQNAAVNV, the Kd with HLA-B*07:02 (setting [6]) is at least 77.5 µM; with HLA-B*51:01 [1] (setting [6]), 1.25 µM; with HLA-B*53:01 (setting [6]), at least 36.8 µM; with HLA-B*35:01 (setting [6]) it was at least 77.4 µM; with HLA-B*54:01 (setting [6]), at least 32.2 µM.

For DTAKAFAYL, in the assay with HLA-A*26:01 [2] (setting [8]), the Kd turned out to be 0.186 µM.

Turning to DTVTYKCPHI, in the assay with HLA-A*68:02 (source organism: Dengue virus 3 Martinique/1243/1999), the dissociation constant (Kd) is 0.0897 µM.

Turning to DVLRQYVLM, the Kd with HLA-A*26:01 [2] (setting [8]) worked out at 2.14 µM.

In turn, EAAGIAACL showed a Kd with HLA-A*26:01 [2] (source organism: Escherichia coli F11) of 0.0146 µM.

Sequence ELILDRGYY showed a dissociation constant Kd with HLA-A*26:01 [2] (source organism: Bacillus cereus G9241) of 0.211 µM.

Regarding EPLSPDTCLL, the Kd in the assay with HLA-B*07:02 (setting [6]) was at least 59.7 µM; in the assay with HLA-B*51:01 [1] (setting [6]) it was at least 69.6 µM; with HLA-B*53:01 (setting [6]) it was 0.289 µM; with HLA-B*35:01 (setting [6]) it was 0.281 µM; with HLA-B*54:01 (setting [6]) it was at least 61.3 µM.

EPVVKDKIKL: the Kd in the assay with HLA-B*07:02 (setting [6]) was at least 31.5 µM; in the assay with HLA-B*51:01 [1] (setting [6]), at least 69.6 µM; in the assay with HLA-B*53:01 (setting [6]), at least 54.2 µM; in the assay with HLA-B*35:01 (setting [6]), at least 69.9 µM; with HLA-B*54:01 (setting [6]), at least 42.7 µM.

Consider ESPARLASAI, for which the Kd in the assay with HLA-A*26:01 [3] turned out to be 4.48 µM; with HLA-A*68:02 (setting [9]), 0.501 µM.

As to ETNMITLLV, the Kd with HLA-A*26:01 [3] was 0.338 µM; with HLA-A*01:01, 0.209 µM; with HLA-A*68:02 (setting [9]) it was 0.00724 µM.

In the case of EVEDYGFGV, in the assay with HLA-A*68:02 (setting [5]), the equilibrium dissociation constant (Kd) amounted to 0.00704 µM.

Take FRRLTSREVL: the Kd with HLA-B*08:01 (setting [10]) came out at 0.104 µM.

GFMRFFQLL: in the assay with HLA-B*08:01 (setting [6]), the Kd came out at 0.00239 µM.

As for HPIMYYTKF, the Kd with HLA-B*07:02 (setting [11]) came out at 0.134 µM; with HLA-B*51:01 [1] (setting [11]), 1.6 µM; with HLA-B*53:01 (setting [11]), 0.0145 µM; with HLA-B*35:01 (setting [11]), 0.0177 µM; with HLA-B*54:01 (setting [11]), 3.77 µM.

On to ILRKIFYSV, for which, in the assay with HLA-B*08:01 (setting [6]), the Kd stood at 0.000102 µM.

As to IPGDILSII, the Kd with HLA-B*07:02 (setting [6]) was 0.0435 µM; with HLA-B*51:01 [1] (setting [6]) it was 0.000459 µM; in the assay with HLA-B*53:01 (setting [6]) it was 0.0275 µM; in the assay with HLA-B*35:01 (setting [6]), 0.266 µM; with HLA-B*54:01 (setting [6]) it was 0.37 µM.

Take KLREYEAAL: the Kd in the assay with HLA-A*68:02 (source organism: Homo sapiens) is at least 27.9 µM; with HLA-A*02:02, 0.0278 µM.

With LLQMEDKAWL, the Kd with HLA-B*08:01 (setting [5]) worked out at 2.01 µM.

With LPDALLFTL, the equilibrium dissociation constant (Kd) was determined as 0.201 µM in the assay with HLA-B*07:02 (setting [12]); 3.33 µM in the assay with HLA-B*51:01 [1] (setting [12]); 0.0146 µM with HLA-B*53:01 (setting [12]); 0.0133 µM with HLA-B*35:01 (setting [12]); 2.89 µM in the assay with HLA-B*54:01 (setting [12]).

With LPHIIDEVM, the dissociation constant Kd was 0.154 µM with HLA-B*07:02 (setting [7]); 9.36 µM in the assay with HLA-B*51:01 [1] (setting [7]); 0.842 µM in the assay with HLA-B*53:01 (setting [7]); 0.015 µM with HLA-B*35:01 (setting [7]); 9.01 µM with HLA-B*54:01 (setting [7]).

In turn, LPWLIFIQI returned a dissociation constant Kd with HLA-B*51:01 [4] of 1.69 µM.

On to LPYVGDTSMM, for which the dissociation constant Kd was 0.828 µM with HLA-B*07:02 (setting [6]); 3.05 µM in the assay with HLA-B*51:01 [1] (setting [6]); 8.53 µM with HLA-B*53:01 (setting [6]); 0.816 µM in the assay with HLA-B*35:01 (setting [6]); at least 69.9 µM with HLA-B*54:01 (setting [6]).

Turning to LTASLVMLLV, the Kd with HLA-A*68:02 (source organism: Dengue virus 4 Dominica/814669/1981) worked out at 0.0303 µM.

Take LTYQNKVVRV: the equilibrium dissociation constant (Kd) with HLA-A*68:02 (setting [5]) is 0.0279 µM.

Consider MLKRARNRV, for which the Kd with HLA-B*08:01 (setting [10]) was determined as 0.025 µM.

In the case of MLLNRFTTR, the Kd with HLA-B*08:01 (setting [9]) was 2.48 µM; with HLA-A*03:01, 0.012 µM; in the assay with HLA-A*33:01 it was 0.0148 µM; with HLA-A*31:01, 0.0015 µM.

Take MPDCGMSVL: the Kd is 0.1 µM with HLA-B*07:02 (setting [13]); 2.81 µM with HLA-B*51:01 [1] (setting [13]); 0.0833 µM with HLA-B*53:01 (setting [13]); 0.00463 µM with HLA-B*35:01 (setting [13]); 2.72 µM with HLA-B*54:01 (setting [13]).
